From the supplement of paper PMC10065799, “High-throughput profiling of sequence recognition by tyrosine kinases and SH2 domains using bacterial peptide display” (eLife, 2023)

target: MERTK (UniProt Q12866); assay: phosphorylation enrichment, bacterial display (enrichment ratio); higher = better substrate or ligand; peptides without Tyr show the background
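Also: 11-residue human phosphosite peptides and single-mutation variants displayed on the E. coli surface, counted by deep sequencing, each peptide's frequency after selection divided by its frequency in the unselected input library; frequency after pTyr selection over input frequency; kinase dosed for 20-30% of maximal phosphorylation in three min.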

MERTK, sequence (Q12866 whole entry, looked up): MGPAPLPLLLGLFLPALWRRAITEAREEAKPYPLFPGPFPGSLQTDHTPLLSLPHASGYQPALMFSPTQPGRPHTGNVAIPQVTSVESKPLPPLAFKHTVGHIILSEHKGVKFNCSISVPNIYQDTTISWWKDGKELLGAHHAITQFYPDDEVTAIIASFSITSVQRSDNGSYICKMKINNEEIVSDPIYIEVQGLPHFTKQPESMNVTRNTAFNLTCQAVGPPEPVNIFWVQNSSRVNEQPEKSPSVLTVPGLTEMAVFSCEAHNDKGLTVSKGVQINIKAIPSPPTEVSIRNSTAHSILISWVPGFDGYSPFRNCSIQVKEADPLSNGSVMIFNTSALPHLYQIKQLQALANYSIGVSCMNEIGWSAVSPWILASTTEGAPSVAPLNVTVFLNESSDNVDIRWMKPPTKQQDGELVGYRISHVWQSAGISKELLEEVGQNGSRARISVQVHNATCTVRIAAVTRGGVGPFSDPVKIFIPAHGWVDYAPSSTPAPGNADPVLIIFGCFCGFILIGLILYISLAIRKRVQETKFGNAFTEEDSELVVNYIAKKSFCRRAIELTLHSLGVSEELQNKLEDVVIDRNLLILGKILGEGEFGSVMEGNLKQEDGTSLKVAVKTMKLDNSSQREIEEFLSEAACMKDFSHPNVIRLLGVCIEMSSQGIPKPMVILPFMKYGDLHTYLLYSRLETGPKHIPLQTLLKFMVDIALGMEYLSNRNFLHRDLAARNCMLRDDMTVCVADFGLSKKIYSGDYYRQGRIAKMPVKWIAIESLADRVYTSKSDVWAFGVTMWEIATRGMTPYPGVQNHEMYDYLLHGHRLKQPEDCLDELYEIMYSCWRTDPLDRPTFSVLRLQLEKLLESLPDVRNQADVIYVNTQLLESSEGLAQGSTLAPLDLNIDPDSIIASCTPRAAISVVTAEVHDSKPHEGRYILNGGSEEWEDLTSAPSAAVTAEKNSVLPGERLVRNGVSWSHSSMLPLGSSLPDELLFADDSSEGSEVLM

Sequence	phosphorylation enrichment
QTPVLYAMLDH [MPZ_Y220]	10.7
VPLATYMRIFK [RPL21_Y30_YF]	0.35
WIPIQYLIISE [NOG_Y222_P223L]	0.436
FHIDHYLGKEM [G6PD_Y202_R198H_YF]	0.331
KVKPIYFRTQG [AR_Y916_H918R]	0.401
FIPSNYVAEDR [FRK_Y104_YF]	0.399
IALNSCHSRNC [IFNGR1_Y397_Y397C]	0.406
GVVVPYEPPEV [TP53_Y220_S215G]	0.387
TGDRPYVCPFD [YY1_Y383]	0.481
AFRHGYFDEEM [PLEC_Y2971_R2969H_YF]	0.478
GLAKEYTDPET [CSNK1G2_Y195_I196T]	0.473
RMDGKYACSFT [FLNB_Y704_T703K_YF]	0.589
VDYQPYRKHKY [TEX37_Y28]	0.302
RSHRSYSCQVM [IGLL1_Y192_R189H]	0.526
EKQARYEIVVE [CDH5_Y223]	0.484
QLHRKYCLSPR [HJURP_Y445_E444K]	0.491
PAKPRYRARQR [KCNJ11_Y26_E23K]	0.935

Sequence	phosphorylation enrichment
GCRSKYVGLWG [KCNQ1_Y184]	0.463
KKHIPYKEHKS [CSNK1G1_Y205_R206K]	0.987
LAEMNYVHQDL [EPHB1_Y740_R743Q]	0.46
GEFHVYRHLRW [PRKRIP1_Y82_R87W]	0.345
AEDKPYAELWT [MPI_Y46_M51T]	0.994
FGSVMYEFVGK [SLC18A1_Y251]	11.1
FVTSMYNEILM [TRPV1_Y310]	0.756
FLGRDYLETLM [DUS3L_Y610_YF]	0.471
VTQEQYELFCE [CBL_Y368_YF]	0.624
TDKLFYIYTSG [SLC27A4_Y243]	0.589
LMVFEYMRHGN [NTRK1_Y591_D596N]	0.457
EEKKKYFDAKI [CASP5_Y103_T106A_YF]	0.501
AGQEKYSAMRD [HRAS_Y64_E63K]	0.312
ILDEAYVMAGA [ERBB2_Y772_V777A]	0.507
SQQTYYRVSNM [ABCD1_Y181]	3.23
MKALGYFAVVT [OPA1_Y498]	0.403

test system: c-Src; assay: as above

Sequence	phosphorylation enrichment
QTPVLYAMLDH [MPZ_Y220]	4.54
VPLATYMRIFK [RPL21_Y30_YF]	0.486
WIPIQYLIISE [NOG_Y222_P223L]	0.457
FHIDHYLGKEM [G6PD_Y202_R198H_YF]	0.334
KVKPIYFRTQG [AR_Y916_H918R]	0.454
FIPSNYVAEDR [FRK_Y104_YF]	0.42
IALNSCHSRNC [IFNGR1_Y397_Y397C]	0.401
GVVVPYEPPEV [TP53_Y220_S215G]	0.352
TGDRPYVCPFD [YY1_Y383]	0.456
AFRHGYFDEEM [PLEC_Y2971_R2969H_YF]	0.412
GLAKEYTDPET [CSNK1G2_Y195_I196T]	0.339
RMDGKYACSFT [FLNB_Y704_T703K_YF]	0.491
VDYQPYRKHKY [TEX37_Y28]	0.35
RSHRSYSCQVM [IGLL1_Y192_R189H]	0.604
EKQARYEIVVE [CDH5_Y223]	0.477
QLHRKYCLSPR [HJURP_Y445_E444K]	0.636
PAKPRYRARQR [KCNJ11_Y26_E23K]	0.763

Sequence	phosphorylation enrichment
GCRSKYVGLWG [KCNQ1_Y184]	0.452
KKHIPYKEHKS [CSNK1G1_Y205_R206K]	1.03
LAEMNYVHQDL [EPHB1_Y740_R743Q]	0.411
GEFHVYRHLRW [PRKRIP1_Y82_R87W]	0.329
AEDKPYAELWT [MPI_Y46_M51T]	2.54
FGSVMYEFVGK [SLC18A1_Y251]	3.48
FVTSMYNEILM [TRPV1_Y310]	0.693
FLGRDYLETLM [DUS3L_Y610_YF]	0.428
VTQEQYELFCE [CBL_Y368_YF]	0.744
TDKLFYIYTSG [SLC27A4_Y243]	0.542
LMVFEYMRHGN [NTRK1_Y591_D596N]	0.539
EEKKKYFDAKI [CASP5_Y103_T106A_YF]	0.479
AGQEKYSAMRD [HRAS_Y64_E63K]	0.416
ILDEAYVMAGA [ERBB2_Y772_V777A]	0.744
SQQTYYRVSNM [ABCD1_Y181]	3
MKALGYFAVVT [OPA1_Y498]	0.436

test system: c-Abl (mouse); assay: as above

Sequence	phosphorylation enrichment
QTPVLYAMLDH [MPZ_Y220]	2.67
VPLATYMRIFK [RPL21_Y30_YF]	0.477
WIPIQYLIISE [NOG_Y222_P223L]	0.858
FHIDHYLGKEM [G6PD_Y202_R198H_YF]	0.415
KVKPIYFRTQG [AR_Y916_H918R]	0.626
FIPSNYVAEDR [FRK_Y104_YF]	0.431
IALNSCHSRNC [IFNGR1_Y397_Y397C]	0.36
GVVVPYEPPEV [TP53_Y220_S215G]	0.695
TGDRPYVCPFD [YY1_Y383]	0.706
AFRHGYFDEEM [PLEC_Y2971_R2969H_YF]	0.806
GLAKEYTDPET [CSNK1G2_Y195_I196T]	0.662
RMDGKYACSFT [FLNB_Y704_T703K_YF]	0.902
VDYQPYRKHKY [TEX37_Y28]	0.53
RSHRSYSCQVM [IGLL1_Y192_R189H]	0.594
EKQARYEIVVE [CDH5_Y223]	0.613
QLHRKYCLSPR [HJURP_Y445_E444K]	0.679
PAKPRYRARQR [KCNJ11_Y26_E23K]	0.818

Sequence	phosphorylation enrichment
GCRSKYVGLWG [KCNQ1_Y184]	0.511
KKHIPYKEHKS [CSNK1G1_Y205_R206K]	3.19
LAEMNYVHQDL [EPHB1_Y740_R743Q]	0.533
GEFHVYRHLRW [PRKRIP1_Y82_R87W]	0.723
AEDKPYAELWT [MPI_Y46_M51T]	0.772
FGSVMYEFVGK [SLC18A1_Y251]	1.3
FVTSMYNEILM [TRPV1_Y310]	0.832
FLGRDYLETLM [DUS3L_Y610_YF]	0.685
VTQEQYELFCE [CBL_Y368_YF]	3.12
TDKLFYIYTSG [SLC27A4_Y243]	1.18
LMVFEYMRHGN [NTRK1_Y591_D596N]	0.912
EEKKKYFDAKI [CASP5_Y103_T106A_YF]	0.58
AGQEKYSAMRD [HRAS_Y64_E63K]	0.604
ILDEAYVMAGA [ERBB2_Y772_V777A]	0.761
SQQTYYRVSNM [ABCD1_Y181]	0.795
MKALGYFAVVT [OPA1_Y498]	0.892

target: Fes (UniProt P07332); assay: as above
Sequence (P07332 whole entry, looked up): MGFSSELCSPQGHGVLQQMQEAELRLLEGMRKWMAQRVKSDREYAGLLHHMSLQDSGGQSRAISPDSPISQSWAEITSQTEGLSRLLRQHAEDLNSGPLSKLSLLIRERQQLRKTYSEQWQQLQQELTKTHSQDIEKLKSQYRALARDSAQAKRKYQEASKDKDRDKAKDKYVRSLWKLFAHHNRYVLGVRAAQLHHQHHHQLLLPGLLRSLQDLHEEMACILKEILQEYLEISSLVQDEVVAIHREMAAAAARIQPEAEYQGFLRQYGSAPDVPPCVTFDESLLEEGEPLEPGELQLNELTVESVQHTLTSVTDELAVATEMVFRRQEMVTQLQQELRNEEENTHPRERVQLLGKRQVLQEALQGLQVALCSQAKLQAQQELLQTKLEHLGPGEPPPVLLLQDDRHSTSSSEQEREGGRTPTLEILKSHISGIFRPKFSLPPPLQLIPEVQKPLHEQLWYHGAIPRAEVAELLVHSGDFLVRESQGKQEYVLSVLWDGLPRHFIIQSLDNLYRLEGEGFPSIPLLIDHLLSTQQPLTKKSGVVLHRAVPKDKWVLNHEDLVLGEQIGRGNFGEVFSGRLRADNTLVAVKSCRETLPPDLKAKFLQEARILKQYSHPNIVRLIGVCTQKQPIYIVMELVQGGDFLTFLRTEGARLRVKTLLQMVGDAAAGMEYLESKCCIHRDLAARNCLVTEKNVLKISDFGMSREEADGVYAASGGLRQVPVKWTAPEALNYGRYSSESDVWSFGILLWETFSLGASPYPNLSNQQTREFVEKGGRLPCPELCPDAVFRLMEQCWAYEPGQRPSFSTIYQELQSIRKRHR

Sequence	phosphorylation enrichment
QTPVLYAMLDH [MPZ_Y220]	1.02
VPLATYMRIFK [RPL21_Y30_YF]	0.881
WIPIQYLIISE [NOG_Y222_P223L]	1.43
FHIDHYLGKEM [G6PD_Y202_R198H_YF]	0.688
KVKPIYFRTQG [AR_Y916_H918R]	0.644
FIPSNYVAEDR [FRK_Y104_YF]	0.657
IALNSCHSRNC [IFNGR1_Y397_Y397C]	0.506
GVVVPYEPPEV [TP53_Y220_S215G]	0.905
TGDRPYVCPFD [YY1_Y383]	0.932
AFRHGYFDEEM [PLEC_Y2971_R2969H_YF]	1.12
GLAKEYTDPET [CSNK1G2_Y195_I196T]	1.07
RMDGKYACSFT [FLNB_Y704_T703K_YF]	1.28
VDYQPYRKHKY [TEX37_Y28]	0.518
RSHRSYSCQVM [IGLL1_Y192_R189H]	0.941
EKQARYEIVVE [CDH5_Y223]	0.852
QLHRKYCLSPR [HJURP_Y445_E444K]	0.852
PAKPRYRARQR [KCNJ11_Y26_E23K]	0.877

Sequence	phosphorylation enrichment
GCRSKYVGLWG [KCNQ1_Y184]	0.708
KKHIPYKEHKS [CSNK1G1_Y205_R206K]	2.1
LAEMNYVHQDL [EPHB1_Y740_R743Q]	1.22
GEFHVYRHLRW [PRKRIP1_Y82_R87W]	1.08
AEDKPYAELWT [MPI_Y46_M51T]	1.25
FGSVMYEFVGK [SLC18A1_Y251]	1.76
FVTSMYNEILM [TRPV1_Y310]	1.38
FLGRDYLETLM [DUS3L_Y610_YF]	0.957
VTQEQYELFCE [CBL_Y368_YF]	1.24
TDKLFYIYTSG [SLC27A4_Y243]	1.94
LMVFEYMRHGN [NTRK1_Y591_D596N]	1.44
EEKKKYFDAKI [CASP5_Y103_T106A_YF]	0.818
AGQEKYSAMRD [HRAS_Y64_E63K]	0.837
ILDEAYVMAGA [ERBB2_Y772_V777A]	1.27
SQQTYYRVSNM [ABCD1_Y181]	0.678
MKALGYFAVVT [OPA1_Y498]	1.53
